Numbering of substitutions follows the chain as printed.

Results on 17 molecules are retold here after patent publication US20230242658A1 (published 2023).

Sequences and labels used below:
T1: cynomolgus monkey 4-1BB on CHO-K1 cells (cynomolgus monkey)
T1 chain: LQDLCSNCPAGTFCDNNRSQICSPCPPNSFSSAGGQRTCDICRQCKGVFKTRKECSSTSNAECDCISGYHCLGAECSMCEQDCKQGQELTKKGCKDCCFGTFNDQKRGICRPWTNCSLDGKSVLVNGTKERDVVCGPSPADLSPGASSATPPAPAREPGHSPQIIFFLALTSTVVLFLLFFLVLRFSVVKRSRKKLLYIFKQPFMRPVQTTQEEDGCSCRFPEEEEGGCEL

B1: PR001834 (antibody, V domains shown)
VH: EVQLLESGGGLVQPGGSLRLSCAASGFTFSGYAMTWVRQPPEKGLEWVSSISGSGNNTFYADSVKGRFTISRDNSKNTLYLQMNSLRAEDTAVYYCAKEGTTETDDYHYNMDVWGQGTTVTVSS
B2: PR001831 (antibody, V domains shown)
VH: EVQLVESGGGVIQPGGSLRLSCEASGFTFSSYAMSWVRQAPEKGLEWVSSISGSGDSTYYADSVKGRFTISRDNSKNTLYLQMNSLRAEDTAGYHCAKEGSNGTDDYHYDIDVWGQGTSVTVSS
B3: PR001830 (antibody, V domains shown)
VH: EVQLLESGGGLVQPGGSLRLSCTASGFTFSNYAMSWVRQAPEKGLEWVSSISGSGGSTFYADSVKGRFTISRDNSKNTLYLQMNSLRAEDTAVYFCAKEGSSETDDHYYNVDVWGQGTTVTVSS
B4: PR001833 (antibody, V domains shown)
VH: B3 VH with T23A, N31S, S101A, S102T, H107Y, Y108H, Y109F, V111T
B5: PR001836 (antibody, V domains shown)
VH: EVQLLESGGGLVQPGGSLRLSCAASGFIFSNFAMTWVRQPPEKGLKWVSSINGSGFNTYYTDSVKGRFTISRDNSRNTLYLQMNRLTAEDTAVYFCAKEGSSETDDHYYNVDVWGQGTTVTVSS
B6: PR000701 (bispecific antibody)
chain 1: not shown
chain 2: EVQLVESGGGLVQPGGSLRLSCAASGFTFSSYWMSWVRQAPGKGLEWVANIKQEGSEKYYVDSVKGRFTISRDNAKNSLYLQMNSLRAEDTAVYYCARDRAVAGAFDIWGQGTMVTVSSASTKGPSVFPLAPSSKSTSGGTAALGCLVKDYFPEPVTVSWNSGALTSGVHTFPAVLQSSGLYSLSSVVTVPSSSLGTQTYICNVNHKPSNTKVDKKVEPKSC
chain 3: not shown
B7: PR003551 (bispecific antibody)
light: DIQMTQSPSTLSASVGDRVTVTCRASQSIYIWLAWYQQKPGKAPNLLIYKASSLETGVPSRFSGSGSGTEFTLTISSLQPDDFATYYCQQYYGSSRTFGQGTKVEIKRTVAAPSVFIFPPSDEQLKSGTASVVCLLNNFYPREAKVQWKVDNALQSGNSQESVTEQDSKDSTYSLSSTLTLSKADYEKHKVYACEVTHQGLSSPVTKSFNRGEC
heavy: EVQLVESGGGLVQPGGSLRLSCAASGFTFSSYWMSWVRQAPGKGLEWVANIKQEGSEKYYVDSVKGRFTISRDNAKNSLYLQMNSLRAEDTAVYYCARDRAVAGAFDIWGQGTMVTVSSASTKGPSVFPLAPSSKSTSGGTAALGCLVKDYFPEPVTVSWNSGALTSGVHTFPAVLQSSGLYSLSSVVTVPSSSLGTQTYICNVNHKPSNTKVDKKVEPKSCDKTHTCPPCPAPEAAGGPSVFLFPPKPKDTLMISRTPEVTCVVVDVSHEDPEVKFNWYVDGVEVHNAKTKPREEQYNSTYRVVSVLTVLHQDWLNGKEYKCKVSNKALGAPIEKTISKAKGQPREPQVYTLPPSREEMTKNQVSLTCLVKGFYPSDIAVEWESNGQPENNYKTTPPVLDSDGSFFLYSKLTVDKSRWQQGNVFSCSVMHEALHNHYTQKSLSLSPGEPKSSDKTHTPPPPPRTEVQLLESGGGLVQPGGSLRLSCAASGFIFSNFAMTWVRQPPEKGLKWVSSINGSGFNTYYTDSVKGRFTISRDNSRNTLYLQMNRLTAEDTAVYFCAKEGSSETDDHYYNVDVWGQGTTVTVSS
B8: PR007141 (bispecific antibody)
light: B7 light
heavy: EVQLVESGGGLVQPGGSLRLSCAASGFTFSSYWMSWVRQAPGKGLEWVANIKQEGSEKYYVDSVKGRFTISRDNAKNSLYLQMNSLRAEDTAVYYCARDRAVAGAFDIWGQGTMVTVSSASTKGPSVFPLAPSSKSTSGGTAALGCLVKDYFPEPVTVSWNSGALTSGVHTFPAVLQSSGLYSLSSVVTVPSSSLGTQTYICNVNHKPSNTKVDKKVEPKSCDKTHTCPPCPAPEAAGAPSVFLFPPKPKDTLMISRTPEVTCVVVDVSHEDPEVKFNWYVDGVEVHNAKTKPREEQYNSTYRVVSVLTVLHQDWLNGKEYKCKVSNKALPAPIEKTISKAKGQPREPQVYTLPPSREEMTKNQVSLTCLVKGFYPSDIAVEWESNGQPENNYKTTPPVLDSDGSFFLYSKLTVDKSRWQQGNVFSCSVMHEALHNHYTQKSLSLSPGGGSGGSEVQLVESGGGLVKPGGSLRLSCVASGFTFSDYYMSWFRQAPGKGLEWVSYISGSGTTIDYADSVKGRFTISRDNAKNSLYLQMNSLRAEDTAVYYCAREREPVAGTLDFDNWGQGTLVTVSS
B9: PR001776 (antibody, V domains shown)
VH: EVQLLESGGGLVQPGGSLRLSCAASGFTFSSYAMSWVRQAPEKGLEWVSAISSSGGSTYYADSVKGRFTISRDNSKNTLYLQMNSLRAEDTAVYYCAKDGVTTPSYYYYYDMDVWGQGTTVTVSS
B10: PR001780 (antibody, V domains shown)
VH: EVQLLESGGGLIQPGGSLRLSCAASGFTFSSFAMTWVRQAPGKGLEWVSTISGSGDNTYYADSVKGRFTISRDNSKNTLYLQMNSLRAEDTAVYFCAKEDTAVASDYYYNIDVWGQGTTVTVSS
B11: PR001775 (antibody, V domains shown)
VH: EVQLLESGGGLVQSGGSLRLSCAASGFTFSSYAMSWVRQAPGKGLEWVSAISGSGGSTDYADSVKGRFTISRDNSTNTLYLQMNSLRAEDTAVYYCAKERAYDYSNYVDFDYWGQGTLVTVSS
B12: PR001842 (antibody, V domains shown)
VH: EVQLLESGGGLVQPGGSLRLSCAASGFTFSSYAMSWGRQAPGKGLEWVSAISGSGGSTYYADSVKGRFTISRDNSKNTLYLHMNSLRAEDTAVYYCAKEKVATTGDYYYDMDVWGQGTTVTVSS
B13: PR001764 (antibody, V domains shown)
VH: B1 VH with G31S, T35S, P40A, S50A, S54G, N56G, N57S, F59Y, N84D, R87K
B14: PR001763 (antibody, V domains shown)
VH: B3 VH with S85R, R87T, F95Y, S102N, E103G, H107Y, Y108H, N110D, V111I
B15: PR001766 (antibody, V domains shown)
VH: B12 VH with A50S, H82Q, V101T, A102G
B16: PR001767 (antibody, V domains shown)
VH: EVQLVETGGGLIQPGGSLRLSCAASGFTVSSNYMSWVRQAPGKGLEWVSVIYSDGSTYYADSVKGRFTISRDNSKNTLYLQMNSLRAEDTAVYYCARDRYYGSGNYPTAYYGMDVRGQGTTVTVSS
B17: PR001781 (antibody, V domains shown)
VH: EVQLLESGGGLVQLGGSLRLSCAASGFTFSSYAMTWVRQAPEKGLEWVSSISGSGGNTYYADSVKGRFTISRDNSKNTLYLQMNSLRAEDTAVYYCAKERTGTTGDYYYNVDVWGQGTTVTVSS

T3 sequence (Q9NZQ7 19-290): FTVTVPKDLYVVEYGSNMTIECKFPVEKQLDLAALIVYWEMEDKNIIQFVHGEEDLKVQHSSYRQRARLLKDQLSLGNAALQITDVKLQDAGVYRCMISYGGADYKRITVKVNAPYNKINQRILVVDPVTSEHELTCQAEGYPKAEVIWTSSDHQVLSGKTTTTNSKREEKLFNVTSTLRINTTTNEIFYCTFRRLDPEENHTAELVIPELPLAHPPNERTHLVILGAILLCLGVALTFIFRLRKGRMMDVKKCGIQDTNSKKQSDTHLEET

One assay addresses T1, cynomolgus monkey 4-1BB on CHO-K1 cells. The assay can be described thus: FACS; FIG. 12E.
With B1, the EC50 is 3.46 nM.

In turn, B2 showed an EC50 of 2.58 nM.

For B3, the EC50 stood at 0.899 nM.

B4 showed an EC50 of 1.02 nM.

As to B5, the EC50 was 2.41 nM.

The target in a further assay is T2, human 4-1BB on CHO-K1 cells (human, UniProt Q07011 24-255). The assay can be described thus: FACS.
Take B6: a half-maximal response (EC50) required 10.2 nM.

B7 registered an EC50 of 3.15 nM.

A further assay concerns the target T2, human 4-1BB on CHO-K1 cells. The assay is described as follows: FACS. The source holds these as a separate data set.
For B8, a half-maximal response (EC50) required 4.62 nM.

The target is the same in the next assay. The assay can be described thus: FACS blocking of 4-1BBL.
Target sequence in this assay (Q07011 24-255): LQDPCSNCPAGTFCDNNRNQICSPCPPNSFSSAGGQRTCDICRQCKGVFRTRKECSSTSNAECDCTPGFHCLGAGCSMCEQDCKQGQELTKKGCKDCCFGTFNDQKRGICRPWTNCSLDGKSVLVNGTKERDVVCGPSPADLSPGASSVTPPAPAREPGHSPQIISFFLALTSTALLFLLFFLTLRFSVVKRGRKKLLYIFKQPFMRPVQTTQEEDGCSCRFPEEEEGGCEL
In turn, B9 displayed an IC50 of 10.9 nM.

On to B10, for which 6.33 nM corresponded to half-maximal inhibition (IC50).

In turn, B1 registered an IC50 of 2.93 nM.

B2: 4.05 nM corresponded to half-maximal inhibition (IC50).

Regarding B3, the IC50 is 2.32 nM.

In turn, B4 showed an IC50 of 2.31 nM.

B11 had an IC50 of 2.4 nM.

In turn, B5 registered an IC50 of 2.12 nM.

Another assay concerns the target T3, human PD-L1 on CHO-K1 cells (human, UniProt Q9NZQ7 19-290). The assay can be described thus: FACS.
B6 came in with an EC50 of 1.72 nM.

B7 showed an EC50 of 1.29 nM.

The target in another assay is T2, human 4-1BB on CHO-K1 cells. The assay is described as follows: FACS. This is another data set of the same source.
Target sequence in this assay (Q07011 24-255): as above
The molecule B1 returned an EC50 of 0.449 nM.

With B3, a half-maximal effect (EC50) was put at 0.209 nM.

In turn, B4 returned a concentration giving a half-maximal response (EC50) of 0.21 nM.

The molecule B12 registered an EC50 of 0.537 nM.

B5 returned an EC50 of 0.28 nM.

The target in another assay is T3, human PD-L1 on CHO-K1 cells. The assay is described as follows: FACS; MDA-MB-231 cells.
B8 showed an EC50 of 0.331 nM.

The target of a further assay is T2, human 4-1BB on CHO-K1 cells. The assay is described as follows: FACS blocking of 4-1BBL. This is another data set of the same source.
Target sequence in this assay (Q07011 24-255): as above
Turning to B13, half-maximal inhibition (IC50) was put at 2.79 nM.

The molecule B14 displayed an IC50 of 4.99 nM.

B15 gave an IC50 of 4.34 nM.

For another assay, the target named is T1, cynomolgus monkey 4-1BB on CHO-K1 cells. The assay can be described thus: FACS; FIG. 12F.
Molecule B12 had an EC50 of 2.29 nM.

For a further assay the target is unchanged. The assay is described as follows: FACS; FIG. 12B.
Take B13: the EC50 was 5.33 nM.

B16 registered an EC50 of 25 nM.

The molecule B14 registered an EC50 of approximately 0.411 nM.

For the molecule B15, it took 4.99 nM to reach a half-maximal effect (EC50).

For the next assay, the target named is T2, human 4-1BB on CHO-K1 cells. The assay is described as follows: FACS. This is another data set of the same source.
In turn, B9 registered an EC50 of 2.43 nM.

In the case of B10, the EC50 came to 0.708 nM.

B13 returned an EC50 of 0.249 nM.

Regarding B16, a half-maximal effect (EC50) was put at 5.87 nM.

Take B11: the response was half-maximal at 0.477 nM (EC50).

With B17, the EC50 came out at 0.492 nM.

Molecule B15 gave an EC50 of 0.399 nM.

Another assay has the same target. The assay can be described thus: FACS. This is another data set of the same source.
Target sequence in this assay (Q07011 24-255): as above
The molecule B14 yielded an EC50 of 0.616 nM.

The next assay concerns the target T1, cynomolgus monkey 4-1BB on CHO-K1 cells. The assay can be described thus: FACS; FIG. 12D.
B9 had an EC50 of 18.1 nM.

With B10, a half-maximal response (EC50) required 2.99 nM.

As for B11, the EC50 stood at 2.66 nM.

In turn, B17 returned an EC50 of 3.1 nM.
